Assay [1] deals with T1, Specific Peptide (SEQ ID NO:4: GVPAEGAFTEDFQGLR) (human).
T1 construct: Synthetic peptide coated on the ELISA plate; also called polypeptide number #1
T1 peptide: GVPAEGAFTEDFQGLR
The assay can be described thus: ELISA, peptide coated at 2 ug/ml, hybridoma supernatant diluted 100 times. As to the method: (§1) (1) Coating antigen: Specific Peptide and Elongated Peptide were respectively diluted with the coating solution, and coated at 2 μg/ml, 100 ul/well at 4° C. overnight; washed three times with the washing solution, 350 ul/well, and pat dried. (2) Blocking: 200 ul/well blocking solution, incubated at 37° C. for 2 h; washed three times with the washing solution, 350 ul/well, and pat dried. (3) The antibody (such as #25, #44, or #50) supernatant medium in Table 1 was diluted by 100 times with antibody diluent, 100 ul/well, and the blank was 100 ul antibody dilution, and they were incubated at 37° C. for 1 h; washed three times with the washing solution, 350 ul/well, and pat dried. (4) The secondary antibody was diluted with antibody diluent at a ratio of 1:10000, 100 ul/well, incubated at 37° C. for 1 h; washed three times with the washing solution, 350 ul/well, and pat dried. (5) Color development: 100 ul/well developer was added, incubating 10 min at room temperature. (6) Termination, reading: 100 ul/well stop solution was added, reading at OD 450 nm.

In assay [2] the target is T2, Elongated Peptide (SEQ ID NO:5: TDGVPAEGAFTEDFQGLR) (human).
T2 construct: Synthetic peptide coated on the ELISA plate
T2 peptide: TDGVPAEGAFTEDFQGLR
The description is as above. As to the method:
as §1

The target of assay [3] is T3, GSDMD-CT expressed protein (human, UniProt P57764 276-484).
T3 construct: Recombinantly expressed; also called recombinant GSDMD-CT; C-terminus of GSDMD
T3 sequence: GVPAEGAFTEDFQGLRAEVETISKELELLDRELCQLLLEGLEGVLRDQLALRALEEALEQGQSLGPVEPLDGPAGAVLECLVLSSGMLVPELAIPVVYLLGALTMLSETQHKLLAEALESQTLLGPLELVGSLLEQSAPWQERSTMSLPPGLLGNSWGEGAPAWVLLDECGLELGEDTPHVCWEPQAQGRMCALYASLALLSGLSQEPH
In words: competitive inhibition ELISA, coated GSDMD-CT vs soluble GSDMD-CT (FIG. 5). As to the method: The protein coating amount and antibody dilution concentration were preliminarily determined by checkerboard titration, and the experimental procedure was as follows:
(1) Coating antigen: The GSDMD-CT expressed protein was diluted with coating solution and coated at 2 ug/ml, 1 ug/ml, 0.5 ug/ml, 0.25 ug/ml, 100 ul/well overnight at 4° C.; washed three times with the washing solution, 350 ul/well, and pat dried. (2) Blocking: 200 ul/well blocking solution, incubated at 37° C. for 2 h; washed three times with the washing solution, 350 ul/well, and pat dried. (3) 1 ug/mL of #25, #44, and #50 antibodies was diluted 1,000 times with antibody diluent, then diluted with a 2-fold gradient, 100 μl/well, and blank was 100 μl of antibody diluent, and the antibodies were incubated at 37° C. for 1 h; washed three times with the washing solution, 350 ul/well, and pat dried. […] (6) Termination, reading: 100 ul/well stop solution was added, reading at OD 450 nm. (7) The dose curve of coating protein relative to antibody was determined. […] (10) 50 ul of sample solutions of different concentrations were added to 50 ul of diluted antibody, and then 100 ul of the mixture was added to the microplate reader plate and incubated for 1 h at 37° C.
(An ELISA detects its analyte on a solid surface through an enzyme-linked reagent.)

B1: MD2106 #50 (antibody, IgG1, V domains shown)
VH: QVQLQQPGTELVKPGASVKLSCKASGYTFTNYWIHWVKQRPGQGLEWIGNTKPSNGDIHYNEKFRSKATLTVDKSSSTAYIQLSSLTSEDSAVYFCAVGYYWGQGTTLTVSS
VL: DIVMTQSPSSLTVTAGEKVTMSCKSSQSLLNSGNQKNYLTWYQQKPGQPPKMLIYWAYNRDSGVPDRFTGSGSGADFTLTISSVQAEDLAVYYCQNDYSYPLTFGAGTKLEL
notes: Mouse hybridoma monoclonal antibody; heavy chain type IgG1, light chain type kappa; Hybridoma supernatant diluted 100 times in the peptide ELISA; 1 ug/mL antibody, further diluted, in the GSDMD-CT ELISA; also called monoclonal antibody #50; MD2106-#5 #50
As to B1, the binding result was “binds” in assay [1], “no binding” in assay [2] and “binds” in assay [3].
